Measurements published in PMC2844805.

Experiments:
[1] = system: O=P(O)(O)OC[C@@H](O)[C@H]1O[C@H](OP(=O)(O)O)[C@@H](O)[C@@H](O)[C@@H]1O; assay: steady-state kinetics; type: biochemical, Bordetella bronchiseptica; conditions: Mg2+; pH 7.5; 25.0 °C
[2] = system: O=P(O)(O)OC[C@@H](O)[C@H]1O[C@@H](OP(=O)(O)O)[C@@H](O)[C@@H](O)[C@@H]1O; assay: steady-state kinetics; type: biochemical, Bordetella bronchiseptica; conditions: Mg2+; pH 7.5; 25.0 °C
steady-state kinetics [3] = substrate: O=P(O)(O)OC[C@@H](O)[C@H]1O[C@H](OP(=O)(O)O)[C@@H](O)[C@@H](O)[C@@H]1O; assay: steady-state kinetics; type: biochemical, Bacteroides thetaiotaomicron; conditions: Mg2+; pH 7.5; 25.0 °C
steady-state kinetics [4] = substrate: O=P(O)(O)OC[C@@H](O)[C@H]1O[C@@H](OP(=O)(O)O)[C@@H](O)[C@@H](O)[C@@H]1O; assay: steady-state kinetics; type: biochemical, Bacteroides thetaiotaomicron; conditions: Mg2+; pH 7.5; 25.0 °C
steady-state kinetics [5] = substrate: O=P(O)(O)OC[C@@H](O)[C@H]1O[C@H](OP(=O)(O)O)[C@@H](O)[C@@H](O)[C@@H]1O; assay: steady-state kinetics; type: biochemical, Mesorhizobium japonicum; conditions: Mg2+; pH 7.5; 25.0 °C
steady-state kinetics [6] = substrate: O=P(O)(O)OC[C@@H](O)[C@H]1O[C@@H](OP(=O)(O)O)[C@@H](O)[C@@H](O)[C@@H]1O; assay: steady-state kinetics; type: biochemical, Mesorhizobium japonicum; conditions: Mg2+; pH 7.5; 25.0 °C
purified protein [7] = substrate: O=P(O)(O)OC[C@@H](O)[C@H]1O[C@H](OP(=O)(O)O)[C@@H](O)[C@@H](O)[C@@H]1O; assay: purified protein; type: biochemical, Escherichia coli; conditions: Mg2+ C([…])phosphate selectively removed; pH 7.5; 25.0 °C
purified protein [8] = substrate: O=P(O)(O)OC[C@@H](O)[C@H]1O[C@@H](OP(=O)(O)O)[C@@H](O)[C@@H](O)[C@@H]1O; assay: purified protein; type: biochemical, Escherichia coli; conditions: Mg2+ C([…])phosphate selectively removed; pH 7.5; 25.0 °C

D-glycero-D-manno-heptose-1β,7-bisphosphate phosphatase (GmhB) (Bordetella bronchiseptica RB50)
Km [1]: 280 ± 30 µM | kcat [1]: 5.9 ± 0.2 s⁻¹ | kcat/Km [1]: 21000 M⁻¹ s⁻¹ | Km [2]: 6.9 ± 0.5 µM | kcat [2]: 22 ± 0.5 s⁻¹ | kcat/Km [2]: 3.2e+06 M⁻¹ s⁻¹

B1: D-glycero-D-manno-heptose-1,7-bisphosphate phosphatase (GmhB) (Bacteroides thetaiotaomicron VPI-5482) (protein)
chain: MRLQDIDVTGFETLLLDRDGVVNRLRPDDYVKKWEEFEFLPGVLEILKAWNTHFKYIFIVTNQRGVGKEIMSEEDLKHIHERMISEVKNYGGRIDRIYYCTALTDSDINRKPGIGMFLQILRDYPDIDKAKCLMIGDSDSDIKFAKNCGIVGIKVI
Km (steady-state kinetics [3]): 33 ± 1 µM | kcat (steady-state kinetics [3]): 29 ± 1 s⁻¹ | kcat/Km (steady-state kinetics [3]): 880000 M⁻¹ s⁻¹ | Km (steady-state kinetics [4]): 86 ± 1 µM | kcat (steady-state kinetics [4]): 13 ± 1 s⁻¹ | kcat/Km (steady-state kinetics [4]): 150000 M⁻¹ s⁻¹

B2: D-glycero-D-manno-heptose-1,7-bisphosphate phosphatase (GmhB) (Mesorhizobium japonicum MAFF 303099) (protein)
chain: MADKTGTPHPLTEPGVWIERIGGRVFPPHLPALFLDRDGTINVDTDYPSDPAEIVLRPQMLPAIATANRAGIPVVVVTNQSGIARGYFGWSAFAAVNGRVLELLREEGVFVDMVLACAYHEAGVGPLAIPDHPMRKPNPGMLVEAGKRLALDLQRSLIVGDKLADMQAGKRAGLAQGWLVDGEAAVQPGFAIRPLRDSSELGDLLAAIETLGRDNRS
Km (steady-state kinetics [5]): 58 ± 1 µM | kcat (steady-state kinetics [5]): 4.4 ± 0.1 s⁻¹ | kcat/Km (steady-state kinetics [5]): 76000 M⁻¹ s⁻¹ | Km (steady-state kinetics [6]): 13 ± 0.2 µM | kcat (steady-state kinetics [6]): 18 ± 0.2 s⁻¹ | kcat/Km (steady-state kinetics [6]): 1.4e+06 M⁻¹ s⁻¹

B3: D-glycero-D-manno-heptose-1,7-bisphosphate phosphatase (GmhB) (Escherichia coli K-12) (protein)
chain: MAKSVPAIFLDRDGTINVDHGYVHEIDNFEFIDGVIDAMRELKKMGFALVVVTNQSGIARGKFTEAQFETLTEWMDWSLADRDVDLDGIYYCPHHPQGSVEEFRQVCDCRKPHPGMLLSARDYLHIDMAASYMVGDKLEDMQAAVAANVGTKVLVRTGKPITPEAENAADWVLNSLADLPQAIKKQQKPAQ
Km (purified protein [7]): 67 ± 1 µM | kcat (purified protein [7]): 4.6 ± 0.1 s⁻¹ | kcat/Km (purified protein [7]): 70000 M⁻¹ s⁻¹ | Km (purified protein [8]): 5.0 ± 0.1 µM | kcat (purified protein [8]): 35.7 ± 0.2 s⁻¹ | kcat/Km (purified protein [8]): 7e+06 M⁻¹ s⁻¹
